# According to article PMC10813304:
# Legend:
# [1] = molecular target: ΔLTRIN, truncated C-terminal LTRIN (lymphotoxin β receptor inhibitor), residues 86-210 (Aedes aegypti); experiment: AUC; sedimentation velocity, 0.5 mg/mL, 25 mM Tris HCl, 50 mM NaCl pH 7.5, 40,000 rpm, 20 °C, continuous c(s) distribution
# [2] = molecular target: ΔLTRIN, truncated C-terminal LTRIN (lymphotoxin β receptor inhibitor), residues 86-210 (Aedes aegypti); experiment: SEC; Superdex 75 after Ni-NTA and ion exchange; elution against a standard curve (between 44 kDa and 17 kDa); also with Ca2+ or EGTA/EDTA without effect
# [3] = molecular target: ΔLTRIN, truncated C-terminal LTRIN (lymphotoxin β receptor inhibitor), residues 86-210 (Aedes aegypti); experiment: dynamic and static light scattering; DynaPro Nanostar; ΔLTRIN at 1 mg/mL to 20 mg/mL; also with Ca2+ or EGTA without effect
# [4] = molecular target: C133Q ΔLTRIN (Aedes aegypti); experiment: SEC; Superdex 75 after Ni-NTA and ion exchange; elution against a standard curve (between 44 kDa and 17 kDa); also with Ca2+ or EGTA/EDTA without effect
# [5] = molecular target: C133Q ΔLTRIN (Aedes aegypti); experiment: dynamic and static light scattering; DynaPro Nanostar; ΔLTRIN at 1 mg/mL to 20 mg/mL; also with Ca2+ or EGTA without effect
stoichiometry N [4],stoichiometry N [5],Substance,stoichiometry N [1],stoichiometry N [2],stoichiometry N [3]
–,–,"ΔLTRIN, truncated C-terminal LTRIN (lymphotoxin β receptor inhibitor), residues 86-210 (domain or fragment)",2,2,2
2,2,C133Q ΔLTRIN (domain or fragment),–,–,–
